Where a chain is given by its changes, count along the chain named. Names may count otherwise.
T1: Kapβ2 (untagged, GST removed) (human, UniProt Q92973-2 1-890)
T1 construct: Karyopherin β2 (Kapβ2, Transportin-1, TNPO1), human; used for ITC and turbidity assays; also called Karyopherin-β2; Transportin-1; source: E. coli BL21 (DE3), purified (GSH column, Tev cleavage, anion exchange, SEC Superdex200)
T1 sequence (looked up): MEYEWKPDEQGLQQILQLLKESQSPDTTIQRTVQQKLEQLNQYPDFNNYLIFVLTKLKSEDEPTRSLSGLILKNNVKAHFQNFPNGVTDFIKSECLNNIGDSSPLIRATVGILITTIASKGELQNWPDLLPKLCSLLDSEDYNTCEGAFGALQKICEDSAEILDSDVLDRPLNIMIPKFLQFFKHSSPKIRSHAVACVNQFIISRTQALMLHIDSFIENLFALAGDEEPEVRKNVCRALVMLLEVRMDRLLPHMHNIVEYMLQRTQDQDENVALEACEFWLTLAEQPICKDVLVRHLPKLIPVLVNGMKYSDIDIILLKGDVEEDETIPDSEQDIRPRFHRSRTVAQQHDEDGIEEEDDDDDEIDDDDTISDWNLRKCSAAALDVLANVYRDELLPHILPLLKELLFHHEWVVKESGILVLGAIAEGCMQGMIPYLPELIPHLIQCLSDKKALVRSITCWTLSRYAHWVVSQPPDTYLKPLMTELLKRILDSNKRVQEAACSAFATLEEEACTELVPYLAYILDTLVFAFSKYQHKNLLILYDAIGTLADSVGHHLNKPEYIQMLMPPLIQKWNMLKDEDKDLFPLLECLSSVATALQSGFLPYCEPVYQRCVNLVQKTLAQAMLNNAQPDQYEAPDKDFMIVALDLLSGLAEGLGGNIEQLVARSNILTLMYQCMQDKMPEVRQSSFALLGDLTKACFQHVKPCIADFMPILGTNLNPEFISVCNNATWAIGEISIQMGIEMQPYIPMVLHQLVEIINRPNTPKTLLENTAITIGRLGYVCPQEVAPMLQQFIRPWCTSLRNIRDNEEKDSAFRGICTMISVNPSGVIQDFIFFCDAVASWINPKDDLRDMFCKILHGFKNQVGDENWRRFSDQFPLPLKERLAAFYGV

T2: GST-Kapβ2 (Karyopherin-β2) (human, UniProt Q92973-2 1-890)
T2 construct: Karyopherin β2 (Kapβ2, Transportin-1, TNPO1), human; GST-importin eluted with glutathione and immobilised again on GSH beads for pull-downs; also called Transportin-1; TNPO1; source: E. coli BL21 (DE3), purified (GSH Sepharose, anion exchange, SEC)
T2 sequence (looked up): T1 sequence (looked up)

B1: MBP-FUS(371–500) (RGG2-ZnF-RGG3) (domain or fragment, UniProt P35637 371-500, looked up)
chain: RRADFNRGGGNGRGGRGRGGPMGRGGYGGGGSGGGGRGGFPSGGGGGGGQQRAGDWKCPNPTCENMNFSWRNECNQCKAPKPDGPGGGPGGSHMGGNYGDDRRGGRGGYDRGGYRGRGGDRGGFRGGRGG
notes: also called FUS RGG2-ZnF-RGG3; source: E. coli BL21 (DE3), purified (amylose resin, SEC); not shown: MBP, N-terminal, kept
B2: MBP-FUS(371–452) (RGG2-ZnF) (domain or fragment, UniProt P35637 371-452, looked up)
chain: RRADFNRGGGNGRGGRGRGGPMGRGGYGGGGSGGGGRGGFPSGGGGGGGQQRAGDWKCPNPTCENMNFSWRNECNQCKAPKP
notes: also called FUS RGG2-ZnF; source: E. coli BL21 (DE3), purified (amylose resin, SEC); not shown: MBP, N-terminal, kept
B3: MBP-FUS PY-NLS (residues 475–526) (domain or fragment, UniProt P35637 475-526, looked up)
chain: GRGGYDRGGYRGRGGDRGGFRGGRGGGDRGGFGPGKMDSRGEHRQDRRERPY
notes: FUS residues 475–526 (PY-NLS); also called FUS(475–526); WT FUS^PY-NLS; source: E. coli BL21 (DE3), purified (amylose resin, SEC); not shown: MBP, N-terminal, kept
B4: MBP-FUS PY-NLS (P525L) (residues 475–526) (domain or fragment, UniProt P35637 475-526, looked up)
chain: B3 chain with P51L
notes: FUS residues 475–526 with the ALS mutation P525L; also called FUS(P525L)^PY-NLS; source: E. coli BL21 (DE3), purified (amylose resin, SEC); not shown: MBP, N-terminal, kept
B5: MBP-FUS(1–370) (domain or fragment, UniProt P35637 1-370, looked up)
chain: MASNDYTQQATQSYGAYPTQPGQGYSQQSSQPYGQQSYSGYSQSTDTSGYGQSSYSSYGQSQNTGYGTQSTPQGYGSTGGYGSSQSSQSSYGQQSSYPGYGQQPAPSSTSGSYGSSSQSSSYGQPQSGSYSQQPSYGGQQQSYGQQQSYNPPQGYGQQNQYNSSSGGGGGGGGGGNYGQDQSSMSSGGGSGGGYGNQDQSGGGGSGGYGQQDRGGRGRGGSGGGGGGGGGGYNRSSGGYEPRGRGGGRGGRGGMGGSDRGGFNKFGGPRDQGSRHDSEQDNSDNNTIFVQGLGENVTIESVADYFKQIGIIKTNKKTGQPMINLYTDRETGKLKGEATVSFDDPPSAKAAIDWFDGKEFSGNPIKVSFAT
notes: FUS residues 1–370 (missing RGG2-ZnF-RGG3-PYNLS); also called FUS LC-RGG1; source: E. coli BL21 (DE3), purified (amylose resin, SEC); not shown: MBP, N-terminal, kept
B6: MBP-FUS(1–500) (domain or fragment, UniProt P35637 1-500, looked up)
chain: MASNDYTQQATQSYGAYPTQPGQGYSQQSSQPYGQQSYSGYSQSTDTSGYGQSSYSSYGQSQNTGYGTQSTPQGYGSTGGYGSSQSSQSSYGQQSSYPGYGQQPAPSSTSGSYGSSSQSSSYGQPQSGSYSQQPSYGGQQQSYGQQQSYNPPQGYGQQNQYNSSSGGGGGGGGGGNYGQDQSSMSSGGGSGGGYGNQDQSGGGGSGGYGQQDRGGRGRGGSGGGGGGGGGGYNRSSGGYEPRGRGGGRGGRGGMGGSDRGGFNKFGGPRDQGSRHDSEQDNSDNNTIFVQGLGENVTIESVADYFKQIGIIKTNKKTGQPMINLYTDRETGKLKGEATVSFDDPPSAKAAIDWFDGKEFSGNPIKVSFATRRADFNRGGGNGRGGRGRGGPMGRGGYGGGGSGGGGRGGFPSGGGGGGGQQRAGDWKCPNPTCENMNFSWRNECNQCKAPKPDGPGGGPGGSHMGGNYGDDRRGGRGGYDRGGYRGRGGDRGGFRGGRGG
notes: FUS residues 1–500; in the turbidity assays MBP is cut off by Tev during the assay; source: E. coli BL21 (DE3), purified (amylose resin, SEC); not shown: MBP, N-terminal, kept
B7: MBP-FUS(1–452) (domain or fragment, UniProt P35637 1-452, looked up)
chain: MASNDYTQQATQSYGAYPTQPGQGYSQQSSQPYGQQSYSGYSQSTDTSGYGQSSYSSYGQSQNTGYGTQSTPQGYGSTGGYGSSQSSQSSYGQQSSYPGYGQQPAPSSTSGSYGSSSQSSSYGQPQSGSYSQQPSYGGQQQSYGQQQSYNPPQGYGQQNQYNSSSGGGGGGGGGGNYGQDQSSMSSGGGSGGGYGNQDQSGGGGSGGYGQQDRGGRGRGGSGGGGGGGGGGYNRSSGGYEPRGRGGGRGGRGGMGGSDRGGFNKFGGPRDQGSRHDSEQDNSDNNTIFVQGLGENVTIESVADYFKQIGIIKTNKKTGQPMINLYTDRETGKLKGEATVSFDDPPSAKAAIDWFDGKEFSGNPIKVSFATRRADFNRGGGNGRGGRGRGGPMGRGGYGGGGSGGGGRGGFPSGGGGGGGQQRAGDWKCPNPTCENMNFSWRNECNQCKAPKP
notes: source: E. coli BL21 (DE3), purified (amylose resin, SEC); not shown: MBP, N-terminal, kept
B8: MBP-FUS(1–430) (domain or fragment, UniProt P35637 1-430, looked up)
chain: MASNDYTQQATQSYGAYPTQPGQGYSQQSSQPYGQQSYSGYSQSTDTSGYGQSSYSSYGQSQNTGYGTQSTPQGYGSTGGYGSSQSSQSSYGQQSSYPGYGQQPAPSSTSGSYGSSSQSSSYGQPQSGSYSQQPSYGGQQQSYGQQQSYNPPQGYGQQNQYNSSSGGGGGGGGGGNYGQDQSSMSSGGGSGGGYGNQDQSGGGGSGGYGQQDRGGRGRGGSGGGGGGGGGGYNRSSGGYEPRGRGGGRGGRGGMGGSDRGGFNKFGGPRDQGSRHDSEQDNSDNNTIFVQGLGENVTIESVADYFKQIGIIKTNKKTGQPMINLYTDRETGKLKGEATVSFDDPPSAKAAIDWFDGKEFSGNPIKVSFATRRADFNRGGGNGRGGRGRGGPMGRGGYGGGGSGGGGRGGFPSGGGGGGGQQRAGDWKCPN
notes: FUS residues 1–430 (missing ZnF-RGG3-PYNLS); source: E. coli BL21 (DE3), purified (amylose resin, SEC); not shown: MBP, N-terminal, kept
B9: MBP-FUS(121–500) (domain or fragment, UniProt P35637 121-500, looked up)
chain: SYGQPQSGSYSQQPSYGGQQQSYGQQQSYNPPQGYGQQNQYNSSSGGGGGGGGGGNYGQDQSSMSSGGGSGGGYGNQDQSGGGGSGGYGQQDRGGRGRGGSGGGGGGGGGGYNRSSGGYEPRGRGGGRGGRGGMGGSDRGGFNKFGGPRDQGSRHDSEQDNSDNNTIFVQGLGENVTIESVADYFKQIGIIKTNKKTGQPMINLYTDRETGKLKGEATVSFDDPPSAKAAIDWFDGKEFSGNPIKVSFATRRADFNRGGGNGRGGRGRGGPMGRGGYGGGGSGGGGRGGFPSGGGGGGGQQRAGDWKCPNPTCENMNFSWRNECNQCKAPKPDGPGGGPGGSHMGGNYGDDRRGGRGGYDRGGYRGRGGDRGGFRGGRGG
notes: as for B7
B10: MBP-FUS (full length) (natural protein, UniProt P35637 1-526, looked up)
chain: MASNDYTQQATQSYGAYPTQPGQGYSQQSSQPYGQQSYSGYSQSTDTSGYGQSSYSSYGQSQNTGYGTQSTPQGYGSTGGYGSSQSSQSSYGQQSSYPGYGQQPAPSSTSGSYGSSSQSSSYGQPQSGSYSQQPSYGGQQQSYGQQQSYNPPQGYGQQNQYNSSSGGGGGGGGGGNYGQDQSSMSSGGGSGGGYGNQDQSGGGGSGGYGQQDRGGRGRGGSGGGGGGGGGGYNRSSGGYEPRGRGGGRGGRGGMGGSDRGGFNKFGGPRDQGSRHDSEQDNSDNNTIFVQGLGENVTIESVADYFKQIGIIKTNKKTGQPMINLYTDRETGKLKGEATVSFDDPPSAKAAIDWFDGKEFSGNPIKVSFATRRADFNRGGGNGRGGRGRGGPMGRGGYGGGGSGGGGRGGFPSGGGGGGGQQRAGDWKCPNPTCENMNFSWRNECNQCKAPKPDGPGGGPGGSHMGGNYGDDRRGGRGGYDRGGYRGRGGDRGGFRGGRGGGDRGGFGPGKMDSRGEHRQDRRERPY
notes: Fused in Sarcoma (FUS), full length; in the turbidity assays MBP is cut off by Tev during the assay; also called FL-FUS; MBP-FL FUS; source: E. coli BL21 (DE3), purified (amylose resin, SEC); not shown: MBP, N-terminal, kept
B11: MBP-FUS(277–500) (domain or fragment, UniProt P35637 277-500, looked up)
chain: SEQDNSDNNTIFVQGLGENVTIESVADYFKQIGIIKTNKKTGQPMINLYTDRETGKLKGEATVSFDDPPSAKAAIDWFDGKEFSGNPIKVSFATRRADFNRGGGNGRGGRGRGGPMGRGGYGGGGSGGGGRGGFPSGGGGGGGQQRAGDWKCPNPTCENMNFSWRNECNQCKAPKPDGPGGGPGGSHMGGNYGDDRRGGRGGYDRGGYRGRGGDRGGFRGGRGG
notes: as for B7

biological target: T1, Kapβ2 (untagged, GST removed); assay: ITC; 10 μM Kapβ2 in the cell, 100 μM or 200 μM MBP-FUS protein in the syringe; 20 mM Tris–HCl, 150 mM NaCl, 10% glycerol, 2 mM BME; 20 °C; single class of binding sites, global analysis of duplicates or triplicates; settings: both partners purified

Binder	Kd [nM]
B1	170
B2	4000
B3	31
B4	180

biological target: T1, Kapβ2 (untagged, GST removed); assay: ITC; reversed set-up: 10 μM MBP-FUS protein in the cell, 100 μM or 200 μM Kapβ2 in the syringe; 20 mM Tris–HCl, 150 mM NaCl, 10% glycerol, 2 mM BME; 20 °C; single class of binding sites; 'apparent' KD for FUS(1–370); settings: both partners purified

Binder	Kd [nM]
B5	35000
B6	160

biological target: T2, GST-Kapβ2 (Karyopherin-β2); assay: pull-down; 4–8 μM GST-importin (or GST) immobilised on 50 μL GSH beads; 4–8 μM MBP-FUS protein or GSP1 added in 100 μL; 20 mM HEPES pH 7.4, 110 mM potassium acetate, 2 mM magnesium acetate, 2 mM DTT, 15% glycerol; 30 min at 25 °C, three washes; Coomassie-stained SDS-PAGE; settings: both partners purified

Binder	binding result
B7	binds
B8	binds
B9	binds
B10	binds
B11	binds

Reference: PMC7881136, “Mechanism of karyopherin-β2 binding and nuclear import of ALS variants FUS(P525L) and FUS(R495X)” (Scientific Reports, 2021)
